This note sets out measurements from doi:10.1101/598128 (bioRxiv, 2019).

B1: His-MBP-Pch2 (natural protein, budding yeast, UniProt P38126 1-564, looked up)
chain: MSYIVDLQVRGSSLRVIKCMFREDEQISSLHSGSDSKQNSNKKLGEFLNLLKAVVKRKLESFPKDRLKTSIITGQELMREGQGSIEIKDPPTEAQQHLIRSLAKVLLHQFSSINGKVNTVNEGQDNLFLSLFVKKISIEQQSTSHVSIKLNFHEKINLGQHIDSILDSEETNESDTYHMGSVDEFIIYPFCCLEEQDELKNGSILSTEFDKIDLELDEDDGFEGETLNNCINSVGNFDIPLSKQTLNLVNISYLPGTTFEGQWESLYFGNNIKERLYSYATISLKIARFKQTGDSNQEDITTLITNNKLLLVHGPPGTGKTTLCKALCQKLSVRREFSDGSDTIDTNYKGIIIELSCARIFSKWFGESSKNISIVFKDIEELLKVNEGRGIFICLLIDEVEAIASSRTNLSSRNESTDGIRVVNTLLTQLDRLKKYHNFLALATSNLLDSLDDAFVDRADGVFYVGNPTAEGILHILKVCIEEMITSGIILFHARSTGVKFFNKYQDILRKIAIKCSTVDISGRTIRKLPLMCLSEYFRTFPVDDDEFVLALAMSARKLSAARK

For series [1], the target named is T1, His-Orc1 (subunit of the purified His-ORC complex) (budding yeast, UniProt P54784 1-913).
T1 sequence: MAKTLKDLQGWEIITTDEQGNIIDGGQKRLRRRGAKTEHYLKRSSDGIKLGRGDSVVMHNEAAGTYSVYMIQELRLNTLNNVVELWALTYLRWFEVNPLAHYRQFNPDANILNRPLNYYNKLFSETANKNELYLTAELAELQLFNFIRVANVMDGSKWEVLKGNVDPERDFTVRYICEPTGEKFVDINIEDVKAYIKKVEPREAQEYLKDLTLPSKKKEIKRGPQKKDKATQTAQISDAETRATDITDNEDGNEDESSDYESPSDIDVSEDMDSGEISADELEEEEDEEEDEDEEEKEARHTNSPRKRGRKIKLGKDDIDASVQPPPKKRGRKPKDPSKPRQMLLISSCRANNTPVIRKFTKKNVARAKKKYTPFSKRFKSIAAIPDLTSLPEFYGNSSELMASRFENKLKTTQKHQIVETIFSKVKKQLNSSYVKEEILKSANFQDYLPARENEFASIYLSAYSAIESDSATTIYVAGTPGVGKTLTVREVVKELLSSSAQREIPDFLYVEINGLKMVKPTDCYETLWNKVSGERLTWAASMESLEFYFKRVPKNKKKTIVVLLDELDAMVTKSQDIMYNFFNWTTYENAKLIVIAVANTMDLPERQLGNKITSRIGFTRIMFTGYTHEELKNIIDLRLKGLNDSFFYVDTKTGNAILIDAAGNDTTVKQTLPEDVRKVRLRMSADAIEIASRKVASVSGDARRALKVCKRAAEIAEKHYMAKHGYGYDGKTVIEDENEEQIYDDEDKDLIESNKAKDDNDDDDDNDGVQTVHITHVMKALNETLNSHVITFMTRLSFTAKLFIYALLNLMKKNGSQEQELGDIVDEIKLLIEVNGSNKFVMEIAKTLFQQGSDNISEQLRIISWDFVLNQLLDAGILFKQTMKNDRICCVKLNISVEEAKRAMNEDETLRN
Description: cross-linking.

The series “SEC” concerns the molecule itself. Description: SEC. (In gel filtration, larger molecules generally elute earlier.)
The target of a further series is T2, 6xHis-Hop1 (budding yeast, UniProt P20050 1-605).
T2 sequence (looked up): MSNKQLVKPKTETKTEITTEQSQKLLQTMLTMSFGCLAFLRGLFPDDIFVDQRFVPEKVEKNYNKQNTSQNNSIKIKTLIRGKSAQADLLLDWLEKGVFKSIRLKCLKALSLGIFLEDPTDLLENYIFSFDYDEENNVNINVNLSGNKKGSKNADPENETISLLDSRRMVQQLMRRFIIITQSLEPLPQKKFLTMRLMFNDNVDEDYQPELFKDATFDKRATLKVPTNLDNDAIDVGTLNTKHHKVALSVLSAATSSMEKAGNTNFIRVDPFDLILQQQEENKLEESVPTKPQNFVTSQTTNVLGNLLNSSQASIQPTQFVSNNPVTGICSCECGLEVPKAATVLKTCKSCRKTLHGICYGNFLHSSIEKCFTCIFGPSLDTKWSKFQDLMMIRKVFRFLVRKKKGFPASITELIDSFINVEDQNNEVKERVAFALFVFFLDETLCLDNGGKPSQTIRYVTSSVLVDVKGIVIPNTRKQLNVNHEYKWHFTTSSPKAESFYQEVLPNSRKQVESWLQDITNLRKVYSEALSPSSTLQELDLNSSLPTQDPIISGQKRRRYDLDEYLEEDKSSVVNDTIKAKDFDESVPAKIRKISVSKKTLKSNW
As to the kind of experiment: pull-down.

The series “His-MBP-Pch2” deals with B1. Description: cross-linking.

For orientation: stoichiometry N means a count of units in the complex or per binding partner. On to B1, for which the binding result (in series [1]; with 6xHis-Hop1) was “binds” throughout. Besides, in “SEC”, the “stoichiometry N” value was determined as 6.

B2: Orc5 (subunit of the purified His-ORC complex) (natural protein, budding yeast)
chain: MNVTTPEVAFREYQTNCLASYISADPDITPSNLILQGYSGTGKTYTLKKYFNANPNLHAVWLEPVELVSWKPLLQAIARTVQYKLKTLYPNIPTTDYDPLQVEEPFLLVKTLHNIFVQYESLQEKTCLFLILDGFDSLQDLDAALFNKYIKLNELLPKDSKINIKFIYTMLETSFLQRYSTHCIPTVMFPRYNVDEVSTILVMSRCGELMEDSCLRKRIIEEQITDCTDDQFQNVAANFIHLIVQAFHSYTGNDIFALNDLIDFKWPKYVSRITKENIFEPLALYKSAIKLFLSTDDNLSENGQGESAITTNRDDLENSQTYDLSIISKYLLIASYICSYLEPRYDASIFSRKTRIIQGRAAYGRRKKKEVNPRYLQPSLFAIERLLAIFQAIFPIQGKAESGSLSALREESLMKANIEVFQNLSELHTLKLIATTMNKNIDYLSPKVRWKVNVPWEIIKEISESVHFNISDYFSDIHE
Consider B2, for which, in the series with His-MBP-Pch2, the binding result is reported as “binds”.
